Data on one molecule can be found in paper PMC4674770, “Aβ-dependent reduction of NCAM2-mediated synaptic adhesion contributes to synapse loss in Alzheimer's disease” (Nature Communications, 2015).

The target of the assay is T1, Aβ1-42 peptide (Aβ1-42 oligomers, Aβ-derived diffusible ligands) (UniProt P05067 672-713).
T1 construct: amyloid-beta peptide 1-42, the cut product of the amyloid precursor protein APP; numbers count on: the Aβ peptide; Used as oligomers: by SDS-PAGE and western blot mainly tetramers (~18 kDa) with a minor monomer band (~4.5 kDa); also called synthetic Aβ_(1-42); source: bought: AbcamBiochemicals (synthetic Aβ1-42), prepared as Aβ-derived diffusible ligands
Kind of assay: ELISA; NCAM2-ED (25 nM) or BSA (25 nM) held on MaxiSorp 96-well plates coated with antibodies against the extracellular domain of NCAM2; Aβ1-42 7.8-250 nM in 0.05% Tween 20 and 0.1% BSA; bound Aβ1-42 detected with antibodies against Aβ1-42 and HRP-conjugated secondary antibodies. Conditions: both partners purified.

B1: recombinant extracellular domain of NCAM2 (NCAM2-ED) (domain or fragment, mouse, UniProt O35136 20-698, looked up)
chain: LLQVTISLSKVELSVGESKFFTCTAIGEPESIDWYNPQGEKIISTQRVMLQKEGVRSRLTIYNANIEDAGIYRCQATDAKGQTQEATVVLEIYQKLTFREVVSPQEFKQGEDAEVVCRVSSSPAPAVSWLYHNEEVTTIPDNRFAVLANNNLQILNINKSDEGIYRCEGRVEARGEIDFRDIIVIVNVPPAIMMPQKSFNATAERGEEMTLTCKASGSPDPTISWFRNGKLIEENEKYILKGSNTELTVRNIINKDGGSYVCKATNKAGEDQKQAFLQVFVQPHILQLKNETTSENGHVTLVCEAEGEPVPEITWKRAIDGVMFSEGDKSPDGRIEVKGQHGRSSLHIRDVKLSDSGRYDCEAASRIGGHQRSMHLDIEYAPKFVSNQTMYYSWEGNPINISCDVTANPPASIHWRREKLLLPAKNTTHLKTHSVGRKMILEIAPTSDNDFGRYNCTATNRIGTRFQEYILELADVPSSPHGVKIIELSQTTAKISFNKPESHGGVPIHHYQVDVKEVASETWKIVRSHGVQTMVVLSSLEPNTTYEIRVAAVNGKGQGDYSKIEIFQTLPVREPSPPSIHGQPSSGKSFKISITKQDDGGAPILEYIVKYRSKDKEDQWLEKKVQGNKDHIILEHLQWTMGYEVQITAANRLGYSEPTVYEFSMPPKPNIIKDTLFNG
notes: signal peptide in the construct; neural cell adhesion molecule 2 (NCAM2, OCAM), mouse, extracellular domain, amino acids 1-698, amplified from a mouse brain cDNA library; About 100 kDa on gels; also called recombinant soluble extracellular domains of NCAM2; source: CHO cells (CHO-K1), stably transfected, secreted into the culture medium; purified (40% ammonia sulphate, desalted, …)
Regarding B1, the binding result is recorded as “binds”.
